Results taken from patent US20190201542A1 (AbbVie / Abbott, published 2019).

T1: human DLL3 (human, UniProt Q9NYJ7 27-492, limits assumed)
T1 construct: also called hDLL3; DLL3 protein
T1 sequence: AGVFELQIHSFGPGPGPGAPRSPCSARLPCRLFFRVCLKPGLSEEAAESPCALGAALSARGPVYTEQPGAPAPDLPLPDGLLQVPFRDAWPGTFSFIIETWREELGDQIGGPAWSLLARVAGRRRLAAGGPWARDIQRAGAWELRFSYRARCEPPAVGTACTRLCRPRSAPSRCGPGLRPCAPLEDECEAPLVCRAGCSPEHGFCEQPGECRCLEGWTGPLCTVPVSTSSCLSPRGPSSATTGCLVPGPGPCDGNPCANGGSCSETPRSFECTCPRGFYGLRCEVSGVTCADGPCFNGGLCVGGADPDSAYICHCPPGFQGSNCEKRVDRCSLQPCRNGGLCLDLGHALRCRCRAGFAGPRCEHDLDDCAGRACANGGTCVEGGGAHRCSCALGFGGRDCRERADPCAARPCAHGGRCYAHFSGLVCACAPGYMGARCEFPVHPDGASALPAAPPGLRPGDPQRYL


Target: T1, human DLL3
Experiment: screen on immobilized hDLL3 or h293-hDLL3 cells
Method in brief: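 Solid-phase ELISA on DLL3-His (0.5 μg/ml coating), developed with HRP anti-mouse IgG and TMB and read at OD 450, was one screen for supernatants of single-cell hybridomas from human DLL3-immunized mice taken after 10 days in culture. Flow-cytometry binding counted as positive only above the control.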

| Binder | binding result |
| --- | --- |
| SC16.7 (antibody, V domains shown, murine mAb) VH: EVQLQQSGPELVKPGASVKISCKASGYSFTGYKMHWVKQSHVKSLEWIGRINPYNGATSYNQNFKDKATLTVDKSSSTAYMDLHSLTSEDSAVYFCARGDYRYDWFAYWGQGTLVTVSA VL: NIMMTQSPSSLAVSAGEKVTMSCKSSQSVLYSSNQKNYLAWYQQKPGQSPKLLIYWASTRESGVPDRFTGSGSGTDFTLTISTVQVEDLAVYYCHQYLSSWTFGGGTKLEIK | binds |
| SC16.79 (antibody, V domains shown, murine mAb) VH: EVQLQQSGPELVKPGASVKISCKTSGYTFTEYTMHWVKQSHGKSLEWIGGINPNNGGTSYNQKFKGKATLTVDKSSSTAYMELRSLTSEDSAVYYCARGPAWFAYWGQGTLVTVSA VL: DIVMSQSPSSLAVSAGEKVTMSCKSSQSLLNSRTRKNYLAWYQQKPGQSPKLLIYWASTRESGVPDRFTGSGSGTDFTLTISSVQAEDLAVYYCKQSYNLYTFGGGTKLKIK | binds |
| SC16.73 (antibody, V domains shown, murine mAb) VH: QVQLQQSGAELMKPGASVKISCKANGYTFSSYWIEWLRQRPGHGLEWIGEILPGSDNSNYNEKFKGKATFTADTSSNTAYMQLSSLTSEESAVYYCTRGLRRDGSYYYVMEHWGQGTSVTVSS VL: DIQMTQSPSSLSASLGERVSLTCRASQDIGYSLNWLQQEPDGTIKRLIYATSSLDSGVPKRFSGSRSGSDYSLTISSLESEDFVDYYCLQYASSPWTFGGGTKLEIK | binds |
| SC16.65 (antibody, V domains shown, murine mAb) VH: QVTLKESGPGILQPSQTLSLTCSFSGFSLSTSGMGVGWIRQPSGKGLEWLALIWWDDVKRYNPALKSRLTISKDASSSQVFLKIASVDTADTATYYCARIASYDYDVVYAMDYWGQGTSVSVSS VL: QIVLTQSPALMSASPGEKVTMTCSVTSSVSYMYWYQQKPRSSPKPWIYLTSNLASGVPARFSGSGSGTSYSLTISSVEAEDAATYYCQQWRNNPFTFGSGTKVEIK | binds |
| SC16.103 (antibody, V domains shown, murine mAb) VH: QVTLKESGPGILKPSQTLSLTCSFSGFSLSTSGMGIGWIRQPSGKGLEWLAHIWWDDDKYYNPSLKSQLTISKDSSRNQVFLKITSVDTADTATYYCARRGTAYYFDYWGQGTTLTVSS VL: DIVLTQSPASLAVSLGQRATISCRASKSVSTSGYSYMHWYQQKPGQPPKLLIYLASNLESGVPARFSGSGSGTDFTLNIHPVEEEDAATYYCQHSRELPLTFGAGTKLELK | binds |
| SC16.61 (antibody, V domains shown, murine mAb) VH: EVLLQRSGPDLVKPGASVTIPCKASGYTFTDYNMDWVKQSHGKSLEWIGNINTYNGGTIYNQKFKGKATLTVDKPSSTAYMELRSLTSEDTAVYYCARRLRYGGHYFDYWGQGTALTVSS VL: DIVMTQSTSSLAMSVGQKVTMSCKSSQSLLNSSNQKNYLAWYQQEPGQSPKLLVSFASTRESGVPDRFTGSGSGTDFTLTISGVQAEDLAVYYCQQHYSIPLTFGAGTKLELK | binds |
| SC16.8 (antibody, V domains shown, murine mAb) VH: QAQLQQSGAELVRPGTSVKVSCKASGYAFTNYLIEWVKQRPGQGLEWIGVINPGTGGTNYNENFKGKATLTADKSSSTAYMQLSSLTSDDSAVYFCARSPYDYHEGAMDYWGQGTSVTVSS VL: EIQMTQSPSSMSASLGDRITITCQATQDIVKNLNWYQQKPGKPPSFLIYYAIELAEGVPSRFSGSGSGSDYSLTISNLESEDFADYYCLQFYEFPFTFGAGTKLELK | binds |
| SC16.101 (antibody, V domains shown, murine mAb) VL: QIVLTQSPAIMSASLGERVTMTCTASSSVSSSYLHWYQQKPGSSPKLWIYSTSNLASGVPARFSGSESGTSYSLTISNMEAEDAATYYCHQYHRSPFTFGSGTKLEIK V domain: QVTLKESGPGILQPSQTLSLTCSFSGFSLSTSGMGVGWIRQPSGKGLEWLAHIWWDDVKRYNPALKSRLTISKDASSSQVFLKIASVDTAETATYYCAHILDRAYYFDYWGQGTTLTVTS | binds |
| SC16.105 (antibody, V domains shown, murine mAb) VH: QVQLQQPGAELVKPGASVKLSCKASGYTFTSYWMHWVKQRPGQGLEWIGVINPSNGRTNYNEKFKSKATLTVDKSSSTAYMQLSSLTSEDSAVYYCARRRELGTLYAMDYWGQGTSVTVSS VL: DIVMTQSHKFMSTSVGDRVSITCKASQDVGTAVAWYQQKPGQSPKLLIYWASIRHTGVPDRFTGSGSGTDFTLTISNVQSEDLADYFCQQYSSYPLTFGAGTKLELK | binds |
| SC16.63 (antibody, V domains shown, murine mAb) VH: QVQLQQSGTELLRPGASVKISCKATGYTFSSYWMEWVKQRPGHGLEWIGEILPGSGTTQYNEKFKGKATFTADTSSNTAYMHLSSLTSEDSAVYYCARGTNSLWGQGTLVTVSA VL: QIVLTQSPAIMSASPGEKVTMTCSASSSVSYMYWYQQKSGTSPKRWIYDTSKLASGVPARFSGSGSGTSYSLTISSMEAEDAATYYCQQWSSNPYTFGGGTKLEIK | binds |
| SC16.80 (antibody, V domains shown, murine mAb) VH: EVQLQQSGPELVKPGGSKKISCKASGYSFTGYSMNWVKQSHGKNLEWIGLINPYSGGTIYNQKFKGKATLTVDKSSSTAYMELLSLTSEDSAVYYCARRSDYPLVYWGQGTLVTVSA VL: ETTVTQSPASLSMAIGEKVTIRCITSTDIDDDMIWYQQKPGEPPKLLISEGNTLRPGVPSRFSSSGYGTDFVFTIENMLSEDVADYYCLKRDDLPYTFGGGTQVEIK | binds |
| SC16.58 (antibody, V domains shown, murine mAb) VH: DVQLVESGGGLVQPGGSRKLSCAASGFTFSSFGMHWVRQAPEKGLEWVAYISSGSSNIYYADTVKGRFTISRDNPKNTLFLQMTSLRSEDTAMYYCARGYYGNYDAMDYWGQGTSVTVSS VL: DIQMTQSPASLSSSVGETVTITCRASENIYSYLAWYQQKQGKSPQLLVYNAKTLAEGVPSRFSGSGSGTQFSLKINSLQPEDFGTYYCQHHYDSPLTFGAGTKLELR | binds |
| SC16.67 (antibody, V domains shown, murine mAb) VH: EVQLVETGGGLVQPKGSLKLSCAVSAFTFTTYAMNWVRQAPGKGLEWVARIRNKSNNYATYYADSVKDRFTISRDDSQSMLYLQMNNLKIEDTAMYYCVFYYDYVYWGQGTLVTVSA VL: QAVVTQESALTTSPGETVTLTCRSSTGAVTTSNYANWIQEKPDHLFTGLIGGTNNRAPGVPARFSGSLIGDKAALTITGAQTEDEAIYFCGLWYSNHLVFGGGTKLTVL | binds |

The remaining lines, values ahead:

| binding result | Binder |
| --- | --- |
| binds | SC16.104 (antibody, V domains shown, murine mAb) VH: QVQLKESGPDLVQPSQTLSLTCTVSGFSLTFYGVHWVRQPPGKGLEWVGTMGWDDKKYYNSALKSRLSISRDTSKNQVFLKLSSLQTEDTAMYYCTRGGTGFDYWGQGTTLTVSS VL: QIVLSQSPAILSASPGEKVTMTCRASSSVSYIHWYRQKPGSSPKPWIYATSNLASGVPARFSGSGSGTSYSLTISRVEAEDAATYYCQQWSSNPPTFGAGTKLELK |
| binds | SC16.84 (antibody, V domains shown, murine mAb) VH: EVQLQQSGPELVKPGASMKISCKASGYSFTGYTMNWVKQSHGKNLEWIGLINPYNGGTTYNQKFKGKATLTVDKSSSTAYMELLSLTSEDSAVYYCALGYYGNYRRYFDVWGAGTTVTVSS VL: DIQMTQSPSSLSASLGGKVTITCKASQDIKKYIAWYQHKPGKGPRLLIHYTSTLEPGIPSRFSGSGSGRDYSFSISNLEPEDIATYYCLQYDILWTFGGGTKLEIK |
| binds | SC16.72 (antibody, V domains shown, murine mAb) VH: EVQLQQSGPELVKPGASVKMSCKASGYTFTSYVMHWVKQKPGQGLEWIGYINPYNDGTKYNEKFKGKATLTSDKSSSTAYMELSSLTSEDSAVYYCARLRSRAMDYWGQGTSVTVSS VL: ENVLTQSPAIMSASLGEKVTMSCRASSSVNYMSWYQQKSDASPKLWIYYTSNLAPGVPARFSGSGSGNSYSLTISSMEGEDAATYYCQQFTSSPYTFGGGTKLEIK |
| binds | SC16.81 (antibody, V domains shown, murine mAb) VH: QVQLKESGPVLVAPSQSLSITCTVSGFSLTSYGVHWVRQPPGKGLEWLGVIWAGGSTNYNSALMSRLSISKDNSKSQVFLKMNSLQTDDTAMYYCAKQGNFYAMDYWGQGTSVTVSS VL: QIVLTQSPAIMSASLGERVTLTCTASSSVSSSYLHWYQQKPGSSPKLWIYSTSNLASGVPTRFSGSGSGTSYSLRISSMEAEDAATYYCHQYNRSPLTFGAGTKLELK |
| binds | SC16.62 (antibody, V domains shown, murine mAb) VH: EVMLVESGGDLVKPGGSLKLSCAASGFTFSSYAMSWVRQTPEKRLEWVAYISGGGDHIYYPDSVRGRFTISRDNAKDTLYLQMSSLRSEDTALYDCARVRDWYFDVWGAGTTVTVSS VL: DIKMTQSPSSMYASLGERVTITCKASQDINSFLSWFQRKPGKSPKTLIYRANRLVDGVPSRFTGSGSGQEFSLTISSLEYEDLGIYYCLQYDEFPYTFGGGTKLEIK |
| binds | SC16.78 (antibody, V domains shown, murine mAb) VH: EVKLVESGGGLVKPGGSLKLSCAASGFTFGRYVMSWVRQTPEKKLEWVASITSGGTTYYPDSVKGRFTISRDNARNILYLQMSSLRSEDTAMYYCARVYYHYDDIFAYWGQGTLVTVSA VL: DIKMTQSPSSMYASLGERVTITCKASQDINSYLSWFQQKPGRSPKTLIYRANRLVDGVPSRFSGSGSGQDYSLTISSLDYEDMGIYYCLQYDEFPFTFGSGTKLEIK |
| binds | SC16.88 (antibody, V domains shown, murine mAb) VH: QVQLQQSGAELARPGASVKLSCKASGYTCTSYWMQWVKQRPGQGLEWIGAIYPGDGDTRYTQKFKGKATLTADKSSSTAYMQLSSLASEDSAVYYCARGRRTEAWFAYWGQGTLVTVSA VL: not shown |
